# Test results reported in the supplement of paper PMC9112550, “Optimization of the antimicrobial peptide Bac7 by deep mutational scanning” (BMC Biology, 2022).
# Tested on: Escherichia coli TOP10
# Test: shrunken log2 fold change of peptide-encoding DNA abundance (4.5 h post-induction vs induction); higher = less antimicrobial activity (less host growth inhibition)
# Conditions: time post-induction: 4.5 h; library: site-saturation at positions 5, 18, 19, 20
# 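Note: peptides expressed intracellularly from a pBAD plasmid library in pooled LB shake-flask culture, induced with 0.3% L-arabinose, DNA abundance read by NGS, three biological replicates, DESeq2 with apeglm shrinkage.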
row,Sequence,shrunken log2 fold change
1,RRIRCRPPRLPRPRPRPHNEPRP,-0.535
2,RRIRYRPPRLPRPRPRPFGCPRP,-0.139
3,RRIRVRPPRLPRPRPRPVKLPRP,-0.407
4,RRIRTRPPRLPRPRPRPDDAPRP,-0.0135
5,RRIRHRPPRLPRPRPRPIAIPRP,0.0123
6,RRIRMRPPRLPRPRPRPRHFPRP,0.00681
7,RRIRWRPPRLPRPRPRPSHIPRP,-0.241
8,RRIRIRPPRLPRPRPRPWATPRP,0.16
9,RRIRTRPPRLPRPRPRPCMSPRP,-0.196
10,RRIRVRPPRLPRPRPRPCIHPRP,0.0261
11,RRIRERPPRLPRPRPRPTWPPRP,0.219
12,RRIRRRPPRLPRPRPRPFDNPRP,-0.241
13,RRIRCRPPRLPRPRPRPWWIPRP,-0.655
14,RRIRDRPPRLPRPRPRPTMGPRP,1.05
15,RRIRARPPRLPRPRPRPHNGPRP,0.0647
16,RRIRCRPPRLPRPRPRPSLEPRP,-0.136
17,RRIRERPPRLPRPRPRPQNTPRP,-0.497
18,RRIRNRPPRLPRPRPRPPTNPRP,0.151
19,RRIRFRPPRLPRPRPRPFCMPRP,-0.62
20,RRIRMRPPRLPRPRPRPCQDPRP,0.227
21,RRIRYRPPRLPRPRPRPFEAPRP,-0.886
22,RRIRSRPPRLPRPRPRPYGYPRP,-0.00281
23,RRIRYRPPRLPRPRPRPKAHPRP,-0.376
24,RRIRYRPPRLPRPRPRPRVWPRP,1.85
25,RRIRQRPPRLPRPRPRPTWTPRP,-0.0772

row,Sequence,shrunken log2 fold change
1,RRIRHRPPRLPRPRPRPRGYPRP,-0.144
2,RRIRLRPPRLPRPRPRPTGRPRP,0.105
3,RRIRWRPPRLPRPRPRPTWQPRP,0.125
4,RRIRWRPPRLPRPRPRPCENPRP,0.285
5,RRIRGRPPRLPRPRPRPTWLPRP,2.72
6,RRIRHRPPRLPRPRPRPVMIPRP,-0.0805
7,RRIRIRPPRLPRPRPRPYRMPRP,-1.26
8,RRIRSRPPRLPRPRPRPASSPRP,-0.201
9,RRIRKRPPRLPRPRPRPNHAPRP,-0.022
10,RRIRARPPRLPRPRPRPNICPRP,-0.0618
11,RRIRCRPPRLPRPRPRPWKPPRP,0.0199
12,RRIRHRPPRLPRPRPRPGLSPRP,-0.0763
13,RRIRVRPPRLPRPRPRPCLIPRP,-0.641
14,RRIRNRPPRLPRPRPRPCIGPRP,0.00845
15,RRIRARPPRLPRPRPRPLGFPRP,0.644
16,RRIRDRPPRLPRPRPRPLAIPRP,0.0447
17,RRIRGRPPRLPRPRPRPFWFPRP,0.283
18,RRIRARPPRLPRPRPRPVDIPRP,0.135
19,RRIRIRPPRLPRPRPRPKKQPRP,-0.194
20,RRIRHRPPRLPRPRPRPHDRPRP,-0.218
21,RRIRNRPPRLPRPRPRPYMYPRP,0.0369
22,RRIRTRPPRLPRPRPRPNKSPRP,-0.315
23,RRIRKRPPRLPRPRPRPIEEPRP,0.566
24,RRIRHRPPRLPRPRPRPYGQPRP,-0.00191
25,RRIRDRPPRLPRPRPRPYNLPRP,-0.0574

row,Sequence,shrunken log2 fold change
1,RRIRNRPPRLPRPRPRPCPDPRP,-0.0721
2,RRIRTRPPRLPRPRPRPVNPPRP,-0.0713
3,RRIRDRPPRLPRPRPRPIEWPRP,0.015
4,RRIRMRPPRLPRPRPRPVSTPRP,1.96
5,RRIRNRPPRLPRPRPRPCSQPRP,-0.0135
6,RRIRERPPRLPRPRPRPIEFPRP,0.101
7,RRIRFRPPRLPRPRPRPCARPRP,0.232
8,RRIRHRPPRLPRPRPRPCAEPRP,-0.228
9,RRIRMRPPRLPRPRPRPSWFPRP,0.0112
10,RRIRSRPPRLPRPRPRPFRWPRP,0.119
11,RRIRNRPPRLPRPRPRPVEFPRP,-0.00441
12,RRIRERPPRLPRPRPRPLEHPRP,-0.277
13,RRIRKRPPRLPRPRPRPLLTPRP,0.652
14,RRIRIRPPRLPRPRPRPYWEPRP,-0.152
15,RRIRGRPPRLPRPRPRPVWGPRP,1.08
16,RRIRKRPPRLPRPRPRPQSYPRP,0.04
17,RRIRGRPPRLPRPRPRPSYLPRP,-0.479
18,RRIRLRPPRLPRPRPRPKLAPRP,0.098
19,RRIRLRPPRLPRPRPRPWQPPRP,-0.0454
20,RRIRVRPPRLPRPRPRPRVHPRP,1.62
21,RRIRDRPPRLPRPRPRPISHPRP,0.0261
22,RRIRVRPPRLPRPRPRPGWLPRP,0.543
23,RRIRNRPPRLPRPRPRPDNWPRP,-0.532
24,RRIRERPPRLPRPRPRPKAAPRP,0.0382
25,RRIRLRPPRLPRPRPRPYNLPRP,-0.417
